# Measured values as given in PMC6093860.
# Read-outs that look alike come from different tables or passages of the source.
# What was measured:
# [1] = target: human complement component 9 (C9), wild type (human); assay: cryo-EM structure; polyC9 formed from purified human C9 at 1.1-1.5 mg mL^-1 in 10 mM HEPES pH 7.5, 50 mM NaCl with amphipol A8-35 (0.015-0.02 mg mL^-1), 37 °C overnight; ring of C9 subunits
# [2] = target: human complement component 9 (C9), wild type (human); assay: as above; remark: listed apart in the source
substance,measurement,setting,value
"human complement component 9 (C9), wild type (natural protein)",stoichiometry N,[1],22
same,stoichiometry N,[2],21
